The target of experiment [1] is Human Id1: Histidine (human) (UniProt P41134). Briefly: sandwich ELISA, 5-3-coated wells, human Id1:His 25.0 ng/ml, detected with rabbit polyclonal B-5133-HRP. For orientation: In an ELISA, binding on a coated surface is turned into a signal by an enzyme label.
The target is the same in experiment [2]. Briefly: ELISA, coated antigen; reference human Id1.
The target is the same in experiment [3]. The experiment is described as follows: sandwich ELISA, 5-3-coated wells, human Id1:His 5.0 ng/ml, detected with rabbit polyclonal B-5133-HRP.
Experiment [4] shares this target. The experiment is described as follows: ELISA, coated antigen, Ab 10.0 ug/ml.
For experiment [5], the target named is T1, Mouse Id1: Histidine (mouse, UniProt P20067-2 1-148).
T1 construct: E. coli fusion protein (vector pGW07); also called m-Id1-His; not shown: His-tag
T1 sequence: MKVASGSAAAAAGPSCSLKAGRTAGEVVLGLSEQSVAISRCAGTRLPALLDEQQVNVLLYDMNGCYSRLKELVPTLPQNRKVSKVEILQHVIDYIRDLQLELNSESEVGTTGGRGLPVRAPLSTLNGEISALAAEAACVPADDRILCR
Briefly: ELISA, coated antigen, Ab 1.00 ug/ml. The protocol:
(§1) Incubate plates at 2-8° C. overnight (16-24 hours). [0145] 11. Shake off the BSA solution. [0146] 12. Dispense 250 μL of 2.5% sucrose solution into each well. [0147] 13. Incubate plates at 2-8° C. for 4 hours. [0148] 14. Shake off sucrose solution. [0149] 15. Dry in vacuum at room temperature overnight. Screening Method [0150] 1. Dispense 100 μL of antibody diluent, diluted rabbit polyclonal anti-Id1 into appropriate wells. […] 2. Incubate at room temperature with mechanical shaking at 750 rpm for 90 minutes. [0152] 3. Remove the incubation mixture by flicking plate content into an appropriate waste container, followed by rinsing the wells 5 times with distilled water. […] 4. Strike the wells sharply onto absorbent paper or paper towels to remove all residual water droplets. [0154] 5. Dispense 100 μL of Goat Anti-Rabbit IgG-HRP Conjugate Reagent into each well. Gently mix for 5 seconds. [0155] 6. Incubate at room temperature with mechanical shaking at 750 rpm for 90 minutes. […] 7. Repeat procedures 3 and 4. [0157] 8. Dispense 100 μL of TMB Reagent into each well. Gently mix for 5 seconds. [0158] 9. Incubate at room temperature with mechanical shaking at 750 rpm for 20 minutes. [0159] 10. Add 100 μL of Stop Solution (1N HCl) into each well. [0160] 11. Gently mix for 10 seconds to ensure a complete mixing. […] 12. Read optical density (absorbance) at 450 nm. Results from this assay were used to select the rabbit sera with the highest antibodies titer that selectively reacts with mouse Id1 or human Id1 or both.
(§2) A comparison was carried out between the reactivity of the rabbit monoclonal anti-mouse Id1, clone #BCH-1/#37-2, of this invention and the mouse monoclonal anti-mouse/human Id1 from BD Pharmingen with the following antigens prepared in Example 5: mouse Id1:His, human Id1:His, human Id2:His, human Id3:His, and GST. These antigens and protein were used to coat the wells.
(§3) Materials and methods were those described in Example 9 except (a) Pharmingen's mouse monoclonal anti-mouse Id1 was used in addition to the rabbit monoclonal anti-mouse Id1 (Example 10), and (b) goat anti-mouse IgG-HRP conjugate was used to process the wells treated with the Pharmingen monoclonal antibody and polyclonal goat anti-rabbit IgG-HRP conjugate was used to process wells treated with rabbit monoclonal anti-mouse Id1.

Experiment [6] addresses T2, Human Id2: Histidine (human, UniProt Q02363 1-134, limits assumed).
T2 construct: E. coli fusion protein (vector pGW07); also called h-Id2: His; not shown: His-tag
T2 sequence (looked up): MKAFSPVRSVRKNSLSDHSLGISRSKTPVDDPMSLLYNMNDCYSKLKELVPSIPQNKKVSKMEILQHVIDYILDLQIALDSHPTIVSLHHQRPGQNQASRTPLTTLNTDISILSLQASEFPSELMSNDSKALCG
The experiment is described as follows: ELISA, coated antigen, Ab 1.00 ug/ml. The protocol: as §1, §2, §3

Experiment [7] has as its target T3, glutathione S-transferase (GST) (UniProt P08515 1-218 = GST).
T3 construct: Coated on wells as control for the fusion partner of the immunogen
The experiment is described as follows: ELISA, coated antigen, Ab 1.00 ug/ml. The protocol: as §1, §2, §3

In experiment [8] the target is T4, Human Id3: Histidine (human, UniProt Q02535 1-119, limits assumed).
T4 construct: E. coli fusion protein (vector pGW07); also called h-Id3: His; not shown: His-tag
T4 sequence (looked up): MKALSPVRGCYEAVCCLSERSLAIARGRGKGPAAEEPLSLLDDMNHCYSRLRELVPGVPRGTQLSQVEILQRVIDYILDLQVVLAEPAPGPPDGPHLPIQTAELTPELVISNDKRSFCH
The experiment is described as follows: ELISA, coated antigen, Ab 1.00 ug/ml. How it is done:
as §1, §2, §3

In experiment [9] the target is Human Id1: Histidine (human) (UniProt P41134). Briefly: ELISA, coated antigen, Ab 1.00 ug/ml.
In experiment [10] the target is T1, Mouse Id1: Histidine. The experiment is described as follows: ELISA, coated antigen, Ab 10.0 ug/ml. How it is done:
as §1, §2, §3

The target of experiment [11] is T2, Human Id2: Histidine. The experiment is described as follows: ELISA, coated antigen, Ab 10.0 ug/ml. The protocol:
as §1, §2, §3

The target in experiment [12] is T3, glutathione S-transferase (GST). The experiment is described as follows: ELISA, coated antigen, Ab 10.0 ug/ml. The protocol:
as §1, §2, §3

In experiment [13] the target is T4, Human Id3: Histidine. The experiment is described as follows: ELISA, coated antigen, Ab 10.0 ug/ml. How it is done: as §1, §2, §3
The target in experiment [14] is Human Id1: Histidine (human) (UniProt P41134). Briefly: ELISA, coated antigen, Ab 2.50 ug/ml.
Experiment [15] has the same target. Briefly: ELISA, coated antigen; relative to mouse Id1.
The target is the same in experiment [16]. Briefly: ELISA, coated antigen, Ab 0.10 ug/ml.

Human Id1: Histidine (human), sequence (P41134 whole entry): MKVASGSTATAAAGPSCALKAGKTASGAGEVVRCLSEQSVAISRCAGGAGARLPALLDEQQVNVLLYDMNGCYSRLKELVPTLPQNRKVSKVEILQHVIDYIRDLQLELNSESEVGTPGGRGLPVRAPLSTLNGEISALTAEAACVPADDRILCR
T3 sequence (P08515 whole entry, the tested form may be a part): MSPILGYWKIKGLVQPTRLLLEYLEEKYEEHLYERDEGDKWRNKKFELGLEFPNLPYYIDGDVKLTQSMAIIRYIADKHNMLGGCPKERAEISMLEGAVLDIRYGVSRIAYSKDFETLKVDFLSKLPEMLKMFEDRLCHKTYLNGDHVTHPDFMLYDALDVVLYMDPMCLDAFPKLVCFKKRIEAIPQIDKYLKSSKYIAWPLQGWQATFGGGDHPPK

Turning to “rabbit monoclonal anti-human Id1, clone #BCH-2/#5-3 (antibody)”, the A450 is 1.94 A450 in experiment [1] and 0.365 A450 in experiment [3]. Further, in experiment [2], the Cross-reactivity (%) was 100%.

B1: rabbit monoclonal anti-mouse Id1, clone #BCH-1/#37-2 (antibody, V domains shown)
VH: QSVEESGGRLVTPGTPLTLTCKVSGFDINSYAMDWFRQAPGKGLEWIGMMSTRGNTYYTSWAKGRFTISKTSSTTVDLKMTSLTTEDTATYFCARGGLWGPGTLVTVSS
VL: RVLTQTASPVSAAVGGTVTINCQASQSVYNGNRLGWYQLKPGQSPKELIHDASTLASGVPSRFRGSGSGTQFTLTINDVQCDDAATYYCVGSYACSTGDCNVFGGGTEVVVK
notes: Rabbit IgG from hybridoma, Protein G purified; also called m Id1 MoAb 37-2; Rabbit Monoclonal Anti-Mouse Id1 (#37-2)
As for B1, the A450 in experiment [4] is 0.194 A450; in experiment [5], 2.88 A450; in [6], 0.053 A450; in experiment [7], 0.062 A450; in experiment [8], 0.063 A450; in experiment [9] it was 0.113 A450. Moreover, the A450 in experiment [10] was found to be 3.27 A450; in experiment [11] it was 0.115 A450; in [12], 0.108 A450; in [13], 0.113 A450; in [14], 0.132 A450; in experiment [16], 0.061 A450. Also, the Cross-reactivity (%) in experiment [15] is < 1%.
